Data from PMC3918674 (Journal of molecular biology, 2013).
Values belong to the binder of their own block, whether it stands above or below them. Where no end group is shown, it is not given here.

What was measured:
[1] = biological target: ClpAP complex (hexameric ClpA associated with tetradecameric ClpP) (Escherichia coli, UniProt P0ABH9 1-758; P0A6G7 15-207); test: single-turnover stopped-flow fluorescence
SEC = biological target: the molecule itself; test: SEC

Sequence of ClpAP complex (hexameric ClpA associated with tetradecameric ClpP) (P0ABH9 whole entry, chain 1 of 2): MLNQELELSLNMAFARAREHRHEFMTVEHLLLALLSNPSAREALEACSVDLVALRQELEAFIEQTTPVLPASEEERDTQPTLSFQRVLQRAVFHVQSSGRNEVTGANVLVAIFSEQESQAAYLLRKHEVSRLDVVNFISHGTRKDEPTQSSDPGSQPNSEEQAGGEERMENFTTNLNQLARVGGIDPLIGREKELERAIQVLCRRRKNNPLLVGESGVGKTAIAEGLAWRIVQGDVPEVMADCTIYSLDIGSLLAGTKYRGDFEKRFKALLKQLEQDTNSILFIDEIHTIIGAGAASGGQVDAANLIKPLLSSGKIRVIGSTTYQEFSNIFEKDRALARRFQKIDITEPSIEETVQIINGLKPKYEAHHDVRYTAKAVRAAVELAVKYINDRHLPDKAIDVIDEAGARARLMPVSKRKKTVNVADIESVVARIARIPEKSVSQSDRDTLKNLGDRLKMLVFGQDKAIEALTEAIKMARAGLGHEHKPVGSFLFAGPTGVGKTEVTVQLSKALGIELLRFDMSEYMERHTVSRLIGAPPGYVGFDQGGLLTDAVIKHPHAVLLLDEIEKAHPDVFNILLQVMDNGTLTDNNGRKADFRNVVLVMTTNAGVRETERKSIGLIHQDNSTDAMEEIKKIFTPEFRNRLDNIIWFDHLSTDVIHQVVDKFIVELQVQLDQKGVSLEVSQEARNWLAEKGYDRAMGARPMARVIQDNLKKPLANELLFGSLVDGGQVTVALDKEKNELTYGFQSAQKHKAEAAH
Sequence of ClpAP complex (hexameric ClpA associated with tetradecameric ClpP) (P0A6G7 15-207, chain 2 of 2): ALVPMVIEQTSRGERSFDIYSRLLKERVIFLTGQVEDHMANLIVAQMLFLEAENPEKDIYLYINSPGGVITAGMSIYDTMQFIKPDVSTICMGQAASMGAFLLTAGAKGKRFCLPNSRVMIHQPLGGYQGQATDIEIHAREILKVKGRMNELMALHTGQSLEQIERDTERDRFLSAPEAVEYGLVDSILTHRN

Binder: C(fluorescein‑5‑maleimide)LILHNKQLGMTGEVSFQAANTKSAANLKVKELRSKKKLAANDENYALAA [N-Cys-50 polypeptide translocation substrate]
binding result [1]: binds

B1: Escherichia coli ClpP (enzyme)
chain: not shown
stoichiometry N (SEC): 7

Further lines, results first:

binding result [1]: binds
Binder: C(fluorescein‑5‑maleimide)TGEVSFQAANTKSAANLKVKELRSKKKLAANDENYALAA [N-Cys-40 polypeptide translocation substrate]

binding result [1]: binds
Binder: C(fluorescein‑5‑maleimide)TKSAANLKVKELRSKKKLAANDENYALAA [N-Cys-30 polypeptide translocation substrate]
